In US20100204091A1 (YEDA RESEARCH AND DEVELOPMENT, published 2010):
Blank lines part the entries; values can stand above or below the binder they belong to. No end group written: not given here.

Legend:
FLAG tagged TRAF2 [1] = molecular target: T1, FLAG tagged TRAF2 (UniProt Q12933 1-501); test: co-immunoprecipitation with anti FLAG-M2 beads from transfected HEK 293T cells, anti HIS blot
T1 construct: For in vitro assays purified on anti-FLAG M2 beads and eluted with FLAG peptide; also called FLAG-TRAF2
T1 sequence (looked up): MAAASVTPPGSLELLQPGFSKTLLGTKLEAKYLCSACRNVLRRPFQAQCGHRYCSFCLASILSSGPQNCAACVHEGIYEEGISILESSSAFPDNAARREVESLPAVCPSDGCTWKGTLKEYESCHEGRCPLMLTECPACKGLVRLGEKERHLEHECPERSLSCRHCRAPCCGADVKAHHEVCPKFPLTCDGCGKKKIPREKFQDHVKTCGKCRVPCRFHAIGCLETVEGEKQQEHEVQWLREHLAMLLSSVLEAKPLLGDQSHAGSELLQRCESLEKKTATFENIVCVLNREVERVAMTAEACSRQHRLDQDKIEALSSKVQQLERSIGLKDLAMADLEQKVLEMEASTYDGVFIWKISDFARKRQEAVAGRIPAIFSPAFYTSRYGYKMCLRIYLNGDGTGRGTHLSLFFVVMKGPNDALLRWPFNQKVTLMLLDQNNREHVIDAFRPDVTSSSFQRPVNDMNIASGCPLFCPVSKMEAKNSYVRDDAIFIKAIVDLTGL
Experimental: (§1) In order to explore whether TRAF2 binds to SIVA2, FLAG tagged TRAF2 was immuno-precipitated from transfected […] cells using anti-FLAG M2 beads. TRAF2 was eluted from the beads using FLAG peptide. The eluted FLAG tagged TRAF2 was incubated with recombinant (bacterially expressed) GST tagged SIVA2 or GST tagged ring finger mutant SIVA2 at 30° C. for one hour in a volume of 50 μl of buffer (30 mM HEPES, pH 7.6, 5 mM MgCl2, 0.2 mM DTT). Next, the binding mix was diluted to 1 ml to attain the following composition −30 mM HEPES, 5 mM MgCl2, 0.2 mM DTT, 150 mM NaCl, 1% Triton X100 and 1 mM EDTA. Immunoprecipitation was carried out with anti-FLAG for TRAF2 and Western blotting analysis was carried out with anti SIVA to detect coprecipitating SIVA. […] The latter was confirmed in the following experiment. HEK 293T cells were co-transfected with 12 ug of HIS-SIVA2 or deletions of SIVA2 lacking the ring finger (SIVA2 1-58 and SIVA 1-81) and FLAG-TRAF2 by calcium phosphate method. 24 hours post transfection; cells were harvested and lysed in 1% Triton containing lysis buffer. TRAF2 was immunoprecipitated using anti FLAG-M2 beads and coprecipitated SIVA2 was probed by Western blotting using anti HIS antibody. Total lysis in FIG. 11D show the expression levels of the proteins. […] (FIG. 11D).

[2] = molecular target: T2, NF-κB-inducing kinase, NIK, (MAP3K14) (human, UniProt Q99558 1-947); test: co-immunoprecipitation from transfected cells (deletion analysis)
T2 construct: in yeast two-hybrid used as bait fusion; also called myc-NIK; wild type NIK
T2 sequence (Q99558 whole entry, the tested form may be a part): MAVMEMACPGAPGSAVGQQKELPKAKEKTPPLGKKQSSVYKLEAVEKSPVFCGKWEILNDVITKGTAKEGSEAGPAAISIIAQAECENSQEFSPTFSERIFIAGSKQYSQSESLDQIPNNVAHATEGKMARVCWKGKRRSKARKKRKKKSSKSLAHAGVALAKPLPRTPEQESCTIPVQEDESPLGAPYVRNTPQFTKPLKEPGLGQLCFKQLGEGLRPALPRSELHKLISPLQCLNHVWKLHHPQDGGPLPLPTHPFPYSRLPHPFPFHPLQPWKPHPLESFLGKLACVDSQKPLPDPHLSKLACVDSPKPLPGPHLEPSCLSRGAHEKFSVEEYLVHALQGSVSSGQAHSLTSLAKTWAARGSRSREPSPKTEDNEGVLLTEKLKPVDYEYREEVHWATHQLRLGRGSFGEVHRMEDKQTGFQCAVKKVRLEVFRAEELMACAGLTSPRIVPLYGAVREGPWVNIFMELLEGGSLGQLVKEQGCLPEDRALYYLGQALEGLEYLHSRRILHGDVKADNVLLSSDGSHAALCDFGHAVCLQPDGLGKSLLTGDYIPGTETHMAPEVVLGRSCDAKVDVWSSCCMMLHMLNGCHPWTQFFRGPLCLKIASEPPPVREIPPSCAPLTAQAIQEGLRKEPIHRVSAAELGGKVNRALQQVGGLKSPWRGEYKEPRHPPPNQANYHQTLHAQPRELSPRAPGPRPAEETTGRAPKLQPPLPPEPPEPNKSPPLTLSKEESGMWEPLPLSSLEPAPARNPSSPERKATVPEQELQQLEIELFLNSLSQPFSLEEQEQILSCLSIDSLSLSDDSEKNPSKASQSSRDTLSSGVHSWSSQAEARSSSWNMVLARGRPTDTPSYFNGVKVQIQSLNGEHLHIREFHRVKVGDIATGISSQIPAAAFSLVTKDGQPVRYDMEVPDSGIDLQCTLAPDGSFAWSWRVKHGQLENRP

FLAG tagged TRAF2 [3] = molecular target: T1, FLAG tagged TRAF2; test: in vitro incubation of eluted FLAG TRAF2 with bacterial GST tagged SIVA2, anti-FLAG IP, anti SIVA blot
Experimental: as §1

[4] = molecular target: T2, NF-κB-inducing kinase, NIK, (MAP3K14); test: yeast two-hybrid, human bone-marrow library, NIK as bait
Experimental: Yeast two-hybrid screening: The system used for screening was the Matchmaker version III (clontech). The prey was pre-transformed human bone marrow library (cat# HY4053AH) that offers high stringent quadruple drop out (QDO) selection along with a-gal assay. Clones growing on plates without LEU, TRP, HIS and ADE were reconfirmed by a-gal assay, which is much more specific than the usual, often leaky, b-gal assay. Plasmids of the positive clones were prepared as follows. Single clones were inoculated into QDO liquid broth and grown overnight at 37° C. Cells were pelleted at 10,000 g and resuspended in 200 μl of buffer containing 2% Triton X-100, 1% SDS, 100 mM NaCl, 10 mM Tris pH8.0, and 1 mM EDTA. The lysates were vortexed for 2 min after adding 200 μl of phenol: chloroform: isoamyl alcohol (25:24:1) and 0.3 g of 600 microns acid washed glass beads (Sigma). Supernatant was collected by centrifugation at 12,000 g and the DNA was precipitated by sodium acetate/ethanol precipitation method (Sambrook et al., 1989). Encoded inserts from the plasmids were amplified by PCR with the primers specific for the library vector pACT2. For further biochemical analysis of individual clones, the amplicons were directly cloned into the N-terminally HIS tagged mammalian expression vector pcDNA3.1 (Invitrogen).

- binding result (FLAG tagged TRAF2 [1]): no binding
- binding result [2]: no binding
B1: SIVA2 1-58 (other)
chain: MPKRSCPFADVAPLQLKVRVSQRELSRGVCAERYSQEVFDPSGVASIACSSCVRAVDG
modifications: cysteine pairing not given here; also: His tag, sequence and position not given here
notes: HIS tagged deletion mutant lacking ring and zinc fingers; also called SIVA 1-58; SIVA2 N-terminus

- binding result (FLAG tagged TRAF2 [3]): binds
B2: GST-SIVA2 (bacterially expressed GST tagged SIVA2) (other)
chain: MPKRSCPFADVAPLQLKVRVSQRELSRGVCAERYSQEVFDPSGVASIACSSCVRAVDGKAVCGQCERALCGQCVRTCWGCGSVACTLCGLVDCSDMYEKVLCTSCAMFET
notes: Cloned into pGEX and expressed in BL-21 cells; also called recombinant GST-SIVA; recombinant SIVA2; not shown: glutathione S-transferase tag of the pGEX vector

- binding result [4]: binds
B3: SIVA-C (C-terminal part of SIVA, amino acids 123-175 in SIVA1 or 58-110 in SIVA2) (other)
chain: KAVCGQCERALCGQCVRTCWGCGSVACTLCGLVDCSDMYEKVLCTSCAMFET
notes: Prey fragment from a human bone marrow two-hybrid library; in mammalian cells HIS tagged; also called SIVA-C terminus; C-terminal fragment of SIVA
